{"source": "patent US20240368285A1", "about": "(HEFEI TG IMMUNOPHARMA, published 2024)", "binders": {"B1": {"name": "affinity maturation antibody h5A1002 (antibody, V domains shown)", "VH": "QVQLQESGPGLVKPSETLSLTCTVSGFSLTTYGGHWIRQPPGKGLEWIGMIWTDGWTDYNAAFISRVTISVDTSKNQFSLKLSSVTAADTAVYYCARKGHGYYYAMDYWGQGTLVTVSS", "VL": "EIVLTQSPGTLSLSPGERATLSCTASSSVSSSYLHWYQQKPGQAPRLLIYSTSNLISGIPDRFSGSGSGTDFTLTISRLEPEDFAVYYCHQYHRSPFTFGQGTKLEIKR", "notes": "Human IgG1, kappa; also called h5A1002-hIgG1"}}, "key": {"[1]": {"molecular_target": "T1, MICA004α3-Fc (human)", "T1 construct": "also called MICA*004-Fc; domain α3 of MICA-004 Fc fusion protein", "T1 sequence (chain, as listed by the source limits assumed)": "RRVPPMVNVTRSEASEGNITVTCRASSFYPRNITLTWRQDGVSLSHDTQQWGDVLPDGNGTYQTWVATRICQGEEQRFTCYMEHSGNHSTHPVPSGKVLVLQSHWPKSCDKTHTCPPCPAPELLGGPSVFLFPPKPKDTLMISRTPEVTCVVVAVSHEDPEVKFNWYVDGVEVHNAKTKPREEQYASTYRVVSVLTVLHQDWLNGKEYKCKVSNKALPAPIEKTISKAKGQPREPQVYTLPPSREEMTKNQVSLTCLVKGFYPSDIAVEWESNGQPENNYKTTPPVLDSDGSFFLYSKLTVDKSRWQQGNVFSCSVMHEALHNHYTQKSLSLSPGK", "experiment": "ELISA on coated MICA*004 α3-Fc (1 µg/ml), HRP anti-human Fab secondary, OD450", "procedure": "(§1) After the antibodies were added, signal intensity was used for judging the binding characteristics of the antibodies and MICA and MICB.\n(§2) The fusion proteins (produced in the Applicant's laboratory; an amino acid sequence of MICA002α3-Fc is as set forth in SEQ ID NO: 22; an amino acid sequence of MICA005α3-Fc is as set forth in SEQ ID NO: 24; an amino acid sequence of MICA008α3-Fc is as set forth in SEQ ID NO: 25; an amino acid sequence of MICA004α3-Fc is as set forth in SEQ ID NO: 23; an amino acid sequence of MICB001α3-Fc is as set forth in SEQ ID NO: 26; and an amino acid sequence of MICB005α3-Fc is as set forth in SEQ ID NO: 27) were diluted to a concentration of 1 μg/ml with PBS and then added into a 96-well plate in a volume of 100 μl/well. The plate was placed at 4° C. overnight. The PBS in the 96-well plate was removed by sucking. After the plate was washed with PBST (that is, PBS having a pH value of 7.2 included 0.1 volume % of Tween 20) for 6 times, PBS containing 10% of BSA was added in a volume of 200 μl/well. The plate was incubated at 37° C. for 2 hours for blocking. The blocking solution was removed. […]"}, "[2]": {"molecular_target": "T2, MICA008α3-Fc (human)", "T2 construct": "also called MICA*008-Fc; domain α3 of MICA-008 Fc fusion protein", "T2 sequence (chain, as listed by the source limits assumed)": "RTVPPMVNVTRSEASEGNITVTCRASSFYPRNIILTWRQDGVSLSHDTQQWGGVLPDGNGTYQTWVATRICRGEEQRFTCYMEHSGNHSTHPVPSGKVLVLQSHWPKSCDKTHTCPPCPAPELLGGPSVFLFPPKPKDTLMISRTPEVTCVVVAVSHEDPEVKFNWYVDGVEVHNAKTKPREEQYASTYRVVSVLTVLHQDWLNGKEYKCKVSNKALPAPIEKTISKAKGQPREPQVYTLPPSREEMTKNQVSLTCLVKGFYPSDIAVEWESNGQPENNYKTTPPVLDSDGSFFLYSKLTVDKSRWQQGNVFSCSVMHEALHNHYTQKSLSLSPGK", "experiment": "ELISA on coated MICA*008 α3-Fc (1 µg/ml), HRP anti-human Fab secondary, OD450", "procedure": "as §1, §2"}, "[3]": {"molecular_target": "T3, MICA on human tumor cells (A-375, A549, HCT-15, MDA-MB-231) (human, UniProt Q29983 24-383)", "T3 construct": "whole, on cells", "T3 sequence (looked up)": "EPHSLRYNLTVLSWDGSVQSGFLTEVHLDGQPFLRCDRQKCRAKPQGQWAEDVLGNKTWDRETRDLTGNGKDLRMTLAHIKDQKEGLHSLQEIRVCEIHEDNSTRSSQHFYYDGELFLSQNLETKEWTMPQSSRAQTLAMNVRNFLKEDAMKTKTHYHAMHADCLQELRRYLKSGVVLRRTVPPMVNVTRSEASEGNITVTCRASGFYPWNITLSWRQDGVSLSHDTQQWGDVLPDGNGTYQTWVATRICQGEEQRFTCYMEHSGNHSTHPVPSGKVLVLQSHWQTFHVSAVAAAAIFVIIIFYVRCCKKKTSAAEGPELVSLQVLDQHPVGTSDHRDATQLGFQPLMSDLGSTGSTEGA", "experiment": "flow cytometry on A-549 cells, Alexa-647 goat anti-human secondary, % binding ratio", "procedure": "(§3) (2) Tumor cells were diluted to a density of 2×10⁶/mL with PBS and added into a 1.5 ml EP tube in a volume of 100 l/tube. 10 l/tube of goat serum was added into the EP tube; and blocking was conducted at 4° C. for 30 min. […] The tube was incubated at 4° C. for 30 min. 1 mL of PBS was added into the EP tube, and centrifugation was conducted 4° C. at a rate of 3,500 rpm for 5 min. The supernatant was removed. Then, the EP tube was washed once with the PBS, and the supernatant was removed after centrifugation. The cells were resuspended with PBS in a volume of 100 l/tube. An Alexa-647 labeled goat anti-human secondary antibody (purchased from Jackson lab) was added into the tube in a volume of 1 l/tube, and the tube was incubated in the dark at 4° C. for 30 min. The tube was washed twice with PBS, and the supernatant was removed after centrifugation. The cells were resuspended with the PBS in a volume of 200 l/tube, and detection was conducted by a flow cytometer. The results are as shown in FIG. 17A and FIG. 17B, FIG. 18A and FIG. 18B, FIG. 19A and FIG. 19B, and FIG. 20A and FIG. 20B."}, "[4]": {"molecular_target": "T3, MICA on human tumor cells (A-375, A549, …)", "experiment": "flow cytometry on A-375 cells, Alexa-647 goat anti-human secondary, % binding ratio", "procedure": "as §3"}, "[5]": {"molecular_target": "T1, MICA004α3-Fc", "experiment": "ELISA on coated MICA*004 α3-Fc (1 µg/ml), HRP anti-human Fab secondary, OD450", "remark": "listed apart in the source"}}, "note": "Where two headings read alike, the source gives them in different places."}
{"binder": "B1", "values": [{"measurement": "EC50 (read off the curve)", "setting": "[1]", "result": "~0.07", "unit": "µg/mL"}, {"measurement": "EC50 (read off the curve)", "setting": "[2]", "result": "~0.08", "unit": "µg/mL"}, {"measurement": "EC50 (read off the curve)", "setting": "[3]", "result": "~0.4", "unit": "µg/mL"}, {"measurement": "EC50 (read off the curve)", "setting": "[4]", "result": "~0.3", "unit": "µg/mL"}, {"measurement": "EC50 (read off the curve)", "setting": "[5]", "result": "~0.04", "unit": "µg/mL"}]}
